This series concerns the molecule itself. Put plainly: native gel or EMSA; native PAGE, 4%-13% acrylamide gradient gel, sample buffer with 1% deoxycholate, silver staining; purified P2X4R.

The stoichiometry N is a count of units in the complex or per binding partner.

B1: rat P2X4 receptor (receptor, UniProt P51577 1-388, looked up)
chain: MAGCCSVLGSFLFEYDTPRIVLIRSRKVGLMNRAVQLLILAYVIGWVFVWEKGYQETDSVVSSVTTKAKGVAVTNTSQLGFRIWDVADYVIPAQEENSLFIMTNMIVTVNQTQSTCPEIPDKTSICNSDADCTPGSVDTHSSGVATGRCVPFNESVKTCEVAAWCPVENDVGVPTPAFLKAAENFTLLVKNNIWYPKFNFSKRNILPNITTSYLKSCIYNAQTDPFCPIFRLGTIVEDAGHSFQEMAVEGGIMGIQIKWDCNLDRAASLCLPRYSFRRLDTRDLEHNVSPGYNFRFAKYYRDLAGKEQRTLTKAYGIRFDIIVFGKAGKFDIIPTMINVGSGLALLGVATVLCDVIVLYCMKKKYYYRDKKYKYVEDYEQGLSGEMNQ
notes: P2X4 receptor (P2X purinoceptor 4), rat; cDNA encoding rat P2X4R subcloned into pcDNA3.1; Homotrimer by native PAGE (about 150 kDa; monomer about 50 kDa in SDS-PAGE) and by AFM; No tag is mentioned; 1321N1 cells are said not to express P2XRs of their own; also called P2X4Rs; source: human 1321N1 astrocytoma cells, stably transfected (pcDNA3.1)
For the protein B1, the “stoichiometry N” value came to 3.

The record behind these values is article PMC2675908, “Direct Observation of ATP-Induced Conformational Changes in Single P2X4 Receptors” (PLOS Biology, 2009).
